# In US7250505 (FRED HUTCHINSON CANCER RESEARCH CENTER, dated 2007):
# Non-standard residues stand in square brackets, D forms with d. No end group written: not given here. pY = N[C@@H](Cc1ccc(OP(=O)(O)O)cc1)C(=O)O
# T1: GST-mDab1 PTB domain fusion protein (mouse, UniProt O75553 29-197 (human entry))
# T1 construct: also called GST-PTB; not shown: glutathione S-transferase encoded by the pGEX-2T vector
# T1 sequence: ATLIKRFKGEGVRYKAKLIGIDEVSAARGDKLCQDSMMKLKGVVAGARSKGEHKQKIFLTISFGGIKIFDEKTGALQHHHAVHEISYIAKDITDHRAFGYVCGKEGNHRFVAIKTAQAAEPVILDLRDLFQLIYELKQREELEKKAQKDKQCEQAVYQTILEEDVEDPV
# Key:
# activated Src (Src527F) = biological target: T2, activated Src (Src527F) (UniProt P00523 1-533); experiment: co-expression with Src527F in 293T cells, immunoprecipitation and immunoblot
# T2 construct: the old residue (Tyr) is from general knowledge
# [1] = biological target: T3, APP protein (endogenous, full-length) (UniProt P12023 18-770, limits assumed); experiment: GST pull-down from P19 cell extracts, Western blot
# T3 construct: P19 is a mouse line by general knowledge; also called endogenous, full-length APP; amyloid precursor protein
# Procedure: To test whether mDab1 would bind to the cytoplasmic tail of the APP protein, extracts of P19 cells were incubated with GST fusion proteins and subjected to immunoblot analysis as described above. […] Bound proteins were detected by SDS-PAGE followed by Western blotting.
# [2] = biological target: T1, GST-mDab1 PTB domain fusion protein; experiment: cellulose peptide array, radiolabeled GST-PTB
# Procedure: Each sheet contained up to 100 different peptide sequences. After incubation, the sheet was washed and exposed to film, and bound PTB domain fusion protein was quantified. […] The amount of radioactivity associated with each peptide was quantified with a PhosphorImager (Molecular Dynamics), and depicted as a percentage of that which associated with the APP peptide.
# [3] = biological target: LexA-Src(295R) fusion protein (UniProt P0A7C2 1-202; P00523 1-533); experiment: yeast two-hybrid, beta-galactosidase filter assay
binder,measurement,setting,value
"mDab198/200F (mutant mDab555 with Phe in place of Tyr 198 and Tyr 200) (other, Co-expressed with Src527F in 293T cells) MSTETELQVAVKTSAKKDSRKKGQDRSEATLIKRFKGEGVRYKAKLIGIDEVSAARGDKLCQDSMMKLKGVVAGARSKGEHKQKIFLTISFGGIKIFDEKTGALQHHHAVHEISYIAKDITDHRAFGYVCGKEGNHRFVAIKTAQAAEPVILDLRDLFQLIYELKQREELEKKAQKDKQCEQAVYQTILEEDVEDPVFQFIVFEAGHEPIRDPETEENIYQVPTSQKKEGVYDVPKSQPVSAVTQLELFGDMSTPPDITSPPTPATPGDAFLPSSSQTLPGSADVFGSMSFGTAAVPSGYVAMGAVLPSFWGQQPLVQQQIAMGAQPPVAQVIPGAQPIAWGQPGLFPATQQAWPTVAGQFPPAAFMPTQTVMPLAAAMFQGPLTPLATVPGTNDSARSSPQSDKPRQKMGKESFKDFQMVQPPPVPSRKPDQPSLTCTSEAFSSYFNKVGVAQDTDDCDDFDISQLNLTPVTSTTPSTNSPPTPAPRQSSPSKSSASHVSDPTADDIFEEGFESPSKSEEQEAPDGSQASSTSDPFGEPSGEPSGDNISPQDGS",fold reduction of the in vivo association against mDab555,activated Src (Src527F),~2 fold
"GST-mDab1 56E PTB domain fusion protein (other, also called mDab56E-GST; mutant mDab1 PTB; not shown: GST of pGEX-2T and its linker) ATLIKRFKGEGVRYKAKLIGIDEVSAAEGDKLCQDSMMKLKGVVAGARSKGEHKQKIFLTISFGGIKIFDEKTGALQHHHAVHEISYIAKDITDHRAFGYVCGKEGNHRFVAIKTAQAAEPVILDLRDLFQLIYELKQREELEKKAQKDKQCEQAVYQTILEEDVEDPV",binding result,[1],no binding
"IIENPQY (15 to 17 residue peptide on a cellulose array; only the motif is printed; also called NGF receptor (TrkA) peptide) [TrkA peptide with the motif Ile Ile Glu Asn Pro Gln Tyr, not phosphorylated]",binding result,[2],no binding
"IIENPQ[pY] (also: on cellulose array, NPXpY peptide on a cellulose array) [TrkA peptide with the motif Ile Ile Glu Asn Pro Gln Tyr, phosphorylated]",binding result,[2],no binding
mDab1 clone B3 fused to the VP16 transactivation domain (other) HHHAVHEISYIAKDITDHRAFGYVCGKEGNHRFVAIKTAQAAEPVILDLRDLFQLIYELKQREELEKKAQKDKQCEQAVYQTILEEDVEDPVYQYIVFEAGHEPIRDPETEENIYQVPTSQKKEGVYDVPKSQPVSAVTQLELFGDMSTPPDITSPPTPATPGDAFLPS,binding result,[3],no binding
